According to the supplement of paper PMC9170038:

System: MS2 coat protein
Experiment: apparent KD of MS2 coat protein; designed switch direction (-1 OFF switch, 1 ON switch): -1; higher = weaker reporter binding
In short: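 Designed RNA switches with common flanks were transcribed on Illumina chips by stalled E. coli RNA polymerase and titrated with SNAP-549-labelled MS2 coat protein, from 0.7 or 1.5 nM doubling to 3 µM, in Tris-HCl pH 7.5 buffer with KCl, MgCl2, BSA, DTT, tRNA and Tween-20. Steps lasted 0.8–1.5 h (lowest) to 10–20 min (highest). Titrations ran without input, with 200 uM small-molecule ligand, or with an oligonucleotide input. Normalised cluster fluorescence was curve-fitted, and apparent KD is the per-design median over clusters.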

[1] = input ligand: microRNA oligo, concentration not stated
[2] = Eterna round: R95, input ligand: FMN 200 uM
[3] = Eterna round: R95, input ligand: microRNA oligo, concentration not stated
[4] = Eterna round: R95, input ligand: none

Sequence	apparent KD of MS2 coat protein (input ligand: FMN 200 uM)	apparent KD of MS2 coat protein [1]	apparent KD of MS2 coat protein (input ligand: none)	apparent KD of MS2 coat protein [2]	apparent KD of MS2 coat protein [3]	apparent KD of MS2 coat protein [4]
GGGUGUGAAGGAUAUACAUGAGGAUCACCCAUGUGAGAGGAGAAUGUUGAGGAGGUUGGUAGAAGGUCAGGAGG [JR_Exclusion3_Sub010] (Eterna round: R96, puzzle: Exclusion 3)	202 nM	105 nM	165 nM			
ACUGGUCAUGAGGAUAUGCGCCAGAACGCCGGCGUAGAAGGCGUGACAUGAGGAUCACCCAUGUCAGUUCGCGA [eternacac ex6r4 sub30] (Eterna round: R97, puzzle: Exclusion 6)	39.1 nM		39.6 nM			
UUUGACUAAGGAUAUCCUUUUGACCACAUGAGGAUCACCCAUGUAUUCCACAAGUGCGAAGGAGAAGGUGGGAAGG [Eternabot (L2) Solution 28] (Eterna round: R97, puzzle: Exclusion 5)	65.6 nM		56.1 nM			
GAAAAGGUAGGAUAUAUGAAAAAAAAGGGUAGAAAAAAAACACAUGAGGAUCACCCAUGUAGAAGGACCAAAAG [salish99_ex2_r3_056] (puzzle: Exclusion 2)				37.2 nM	46.3 nM	26.9 nM
CGACAGGGAGGAUAUACAUGAGGAUCACCCAUGUUCAAGCGUCCUUGAACUACCUCUGGUAGAAGGCCCUAAAG [jl-ex3-4.67 ViennaUCT mod] (Eterna round: R97, puzzle: Exclusion 3)	44.6 nM		123 nM			
ACAGUACAUGAGGAUCACCCAUGUGAGGAUAUAGUAGUAUGGGAGACCAUACUAAAGACUAGAAGGCGCGGGCA [Exclusion 1 S1] (Eterna round: R97, puzzle: Exclusion 1)	43.6 nM		67 nM			
AGUAACAGAGGAUAUACUGUUUUAUGUGUUUGUUAUUUUAAACAUGAGGAUCACCCAUGUAGAAGGCUGAAUGA [JMF 99] (puzzle: Exclusion 2)					24.7 nM	
AGUCAGGCGGUAGGAUAUCCAAAUCGAGUGACCCUCUCAUAACAUGAGGAUCACCCAUGUCGGUGGGAGAAGGGCCGUAAGGCG [Mat - Exclusion NG 2 - Mod of JL - D63] (Eterna round: R96, puzzle: Exclusion NG 2)	48.2 nM	25.8 nM	29.5 nM			
GGUGCUGGCGCGUCGGUGUUGGUGCAAUAAGCUUGUGAAACAUGAGGAUCACCCAUGUCCUCAUAAGCUCGUCUUAU [salish99_TOv2_r2_086] (puzzle: Sensor v3, turn-off variant 2)				17.7 nM	529 nM	15.9 nM
GUCAGCUCGUGAGGAUAUGCACAUGAGGAUCACCCAUGUAAGAUCAAGCUGCUUCGGCAGCAAGUGCAGAAGGCACGAGCUGAC [ENG2/9-A1] (Eterna round: R96, puzzle: Exclusion NG 2)	137 nM	138 nM	303 nM			
AGUACUAACACGGCUGUGUUAGUACAAUAAGCUUGUGAAACAUGAGGAUCACCCAUGUCCUCAUAAGCUCGUCUUAU [salish99_TOv2_r3_078] (puzzle: Sensor v3, turn-off variant 2)				18 nM	580 nM	15.6 nM
UAUAUGUCAGGAUAUUAGUAGUAAAUGAAUAAAAUUAUUACUGAGAAGGGACAUGAGGAUCACCCAUGUGCUUC [Mat - Exclusion 4 - Eli Mod - D25] (Eterna round: R97, puzzle: Exclusion 4)	224 nM		27.9 nM			
AUUGGGCAAGCAUGAUCCCACAUGAGGAUCACCCAUGUGUUCGUCUUAUAGGCUGCUGAGGCUUUUGCCUCGGUGGC [LRO Sensor-off var1-02 loose mod of D91 from Mat747] (Eterna round: R97, puzzle: Sensor, turn-off variant 1)	706 nM		875 nM			
UUUAAGUCAGGAUAUACAUGAGGAUCACCCAUGUAAAAUUUUAAUUUAAUUUGAAGGUGUAGAAGGGACAAAUU [Ex3 #37] (Eterna round: R97, puzzle: Exclusion 3)	23 nM		24.6 nM			
AUAAUGUCAGGAUAUCAGACGUACAGCUUCGGCUGUACGUCUGAGAAGGGACAUGAGGAUCACCCAUGUGAUUA [E4/3-A1] (Eterna round: R97, puzzle: Exclusion 4)	224 nM		940 nM			
GUAUAGUGAGGAUAUAUAUGCAGUAAACCUCAAAAGAUCGAACUUGAGGAUCACCCAAGUAGAAGGCGCGAGAU [JR_Ex2_Sub052] (Eterna round: R97, puzzle: Exclusion 2)	24.5 nM		30.4 nM			
AAUAACAGAGGAUAUACUAUUUUAUGUGUUUAUUGUUUUGAACAUGAGGAUCACCCAUGUAGAAGGCUGAGUAA [JMF 38] (puzzle: Exclusion 2)					27.5 nM	

Sequence	apparent KD of MS2 coat protein (input ligand: FMN 200 uM)	apparent KD of MS2 coat protein [1]	apparent KD of MS2 coat protein (input ligand: none)	apparent KD of MS2 coat protein [2]	apparent KD of MS2 coat protein [3]	apparent KD of MS2 coat protein [4]
UUUAAUUUUUUUUUUUUACAAGCUUUUUGCUCGUCUUAUACAUGAGGAUCACCCAUGUGAGUGGGAGAUAAAUUAUC [JMF 22] (puzzle: Sensor v3, turn-off variant 2)				98.2 nM	213 nM	170 nM
AGUAACUAUCACGAAAGUGAUAGUUACACAAGCAGUGAAACAUGAGGAUCACCCAUGUCCUCAUUUGCUCGUCUUAU [Sensor 3 - 25] (puzzle: Sensor v3, turn-off variant 2)				53.1 nM	390 nM	52.2 nM
AAUAAGCGAGGAUAUGCGGGCGGGUGCGGCCAGCCGAUGUGACAUGAGGAUCACCCAUGUAGAAGGCGCAAUAA [Excls2-VI] (puzzle: Exclusion 2)				15.9 nM	11.4 nM	10.7 nM
CUCGUGCAGCUUUGCUGUACGAGUACAUGAGGAUCACCCAUGUAGGAUAUGGUACGCUUUGCGUGCUAGAAGGAUAUGUGUAGG [JL EXNG3 1.38] (Eterna round: R96, puzzle: Exclusion NG 3)	44.1 nM	18.4 nM	31.3 nM			
CGGAUGUGAGGAUAUACAUGAGGAUCACCCAUGUGAGCCAGCUAGCUGACUGGCUCGUGUAGAAGGCACGUCUG [JL-ex3-2.16 Brourd mod] (puzzle: Exclusion 3)					14.2 nM	
CCAUGGGAGCGAGGAUAUAGACCAUGGGAAGAUCUAGAAGGCGCUGACAUGAGGAUCACCCAUGUGUUCAUGAGGAGGUGGACA (Eterna round: R96, puzzle: Exclusion NG 1)	73.7 nM	74.4 nM	47.1 nM			
AGCUAAAUAGGAUAUGCCCGGGAUAACAUGAGGAUCACCCAUGUGACCGAUUCAUGUCCUGCAGAAGGGUUUGGGA [Mod of ViennaUCT 6 - Jieux - Exclusion 5] (Eterna round: R97, puzzle: Exclusion 5)	14.3 nM		13.5 nM			
GACCGGACGUGGUCAGGUAACAUGAGGAUCACCCAUGUAGGUCUAGGAACAAGCCUUUUGUAGGCUCGUCUUAUAAA [JR_SV3TOV1_Sub059] (puzzle: Sensor v3, turn-off variant 1)				47.5 nM	36.1 nM	63.6 nM
GAUUAACAUGAGGAUCACCCAUGUGAGGAUAUUGACUUGCUCACUUUCCGAUUCGAGUCGAGAAGGCGCAUCUU [1986#117] (Eterna round: R97, puzzle: Exclusion 1)	23.9 nM		21.9 nM			
CCGCUCCGUGUAGGAUAUCGCUGUACCCUGCGGCGAGAAGGACAUGAGGAUCACCCAUGUAUGUUAUUAUCACGCGUGGCGCAC [Design 72] (Eterna round: R96, puzzle: Exclusion NG 1)	16 nM	12.4 nM	16.4 nM			
UAUUAGCAAGCAAAUGGGUACAUGAGGAUCACCCAUGUGCUCGUCUUAUAAGGUACUGUGACGAAAGUCACGGUACC [Eli 91 v35] (Eterna round: R97, puzzle: Sensor, turn-off variant 1)	24.6 nM		22.5 nM			
AGUAUGUCAGGAUAUCUCGGGUAGUCGACAACGGCUACCGAAGAGAAGGGACAUGAGGAUCACCCAUGUACCAU [EX4 B.26] (Eterna round: R97, puzzle: Exclusion 4)	28.3 nM		24.9 nM			
UGUUGUCGCGUAGGAUAUGGCCAACAGGCCCUAGGAUAUGGGAAACCAGAAGGAGCGCCAACAGGCGAGAAGGACGGGACAACU [pwkr exNG2 2xF7 2xFMN.19] (Eterna round: R96, puzzle: Exclusion NG 2)	734 nM	451 nM	268 nM			
CCCGUGUGAGGAUAUCCCUCCACAGUACGAAUCGACCCGUGGGAGAAGGCACAUGAGGAUCACCCAUGUGAACG [Eternabot (Original) Solution 30] (Eterna round: R97, puzzle: Exclusion 4)	42.5 nM		32.8 nM			
AACAUGAGGAUCACCCAUGUGGGUCCUCUGUGGCAGCGAGACGAGGAUAUCAAUGGAGGGCCAGGUGAGAAGGUGUACGAUCAU [Eternabot solution 28] (Eterna round: R96, puzzle: Exclusion NG 3)	183 nM	192 nM	386 nM			
UUUUUGUGAGGAUAUGCAAUAUCUUCUAUUUAUUAUUAAUUGCAGAAGGCACAUGAGGAUCACCCAUGUAUUUU [Ex4 - 3 - 36] (puzzle: Exclusion 4)					20.5 nM	
UUGUUGUGUGUAGGAUAUGCAUGUUAUUAUUAUGCAGAAGGACAUGAGGAUCACCCAUGUGUAUUAUUAUUAUAUAUUAUAUAU [Title] (Eterna round: R96, puzzle: Exclusion NG 1)	21.1 nM	13.8 nM	22.5 nM			
